Blank lines part the entries; values can stand above or below the binder they belong to. Square brackets hold non-standard residues; d marks the D form. Ends that are not written are not given here. Nle = CCCC[C@H](N)C(=O)O
How the values were obtained:
Hog Intrinsic Factor [1] = molecular target: T1, Hog Intrinsic Factor (Sus scrofa); assay: ELISA, single point, hybridoma supernatant on plate coated with Hog Intrinsic Factor, OD 650 nm
T1 construct: The source of the HIF sample used in the ELISAs is not described; also called HIF; Intrinsic Factor from Sus scrofa
T1 chain: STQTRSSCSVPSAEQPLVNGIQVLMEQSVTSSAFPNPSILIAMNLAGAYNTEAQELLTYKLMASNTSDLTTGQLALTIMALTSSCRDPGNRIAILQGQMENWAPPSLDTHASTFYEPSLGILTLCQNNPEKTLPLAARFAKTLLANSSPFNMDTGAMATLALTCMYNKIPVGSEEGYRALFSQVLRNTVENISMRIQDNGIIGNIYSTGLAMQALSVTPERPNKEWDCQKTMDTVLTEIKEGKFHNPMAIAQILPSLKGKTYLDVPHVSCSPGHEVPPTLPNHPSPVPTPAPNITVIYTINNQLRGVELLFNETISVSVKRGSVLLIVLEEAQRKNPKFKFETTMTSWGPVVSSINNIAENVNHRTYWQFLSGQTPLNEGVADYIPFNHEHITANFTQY
Protocol: One week after the last injection, the mice were bled, and the serum samples were tested for peptide-specific antibodies in an ELISA assay with corresponding ovalbumin conjugates and free peptides. All ELISA steps were performed at room temperature. Nunc Maxi-Sorp™ flat-bottom ELISA plates were coated with peptide or peptide-OVA conjugate at 2 and 1 μg/mL in PBS, respectively, at 50 μl per well for 1 hour. The plates were flicked dry, and the remaining binding sites were blocked by adding 200 μl per well of blocking solution (0.5% Casein in PBS containing 0.05% Tween 20) for 1 hour. Plates were washed three times with Milli-Q water containing 0.05% Tween 20, and antibody samples to be tested (serum, hybridoma supernatant, or mAb dilutions in PBS) were placed in the wells of the plates at volume 50 μl per well. After incubation for one hour, the plates were washed again as described above, and goat anti-mouse IgG-HRP conjugate diluted 1:3,000 in blocking solution was added at 50 μl per well for 1 hour. The plates were washed, and TMB substrate (Moss, Pasadena, Md.) was added at 100 μl per well for 15 minutes. Optical density of the samples at 650 nm was measured using an ELISA plate reader.
Mice received prefusion boosts on three consecutive days with the same immunogen (10 μg/dose/animal in PBS, IP), and on the fourth day, mouse spleens were harvested and frozen. Several years later, when recombinant Pig TCN1 protein became commercially available, thawed immune splenocytes were used for hybridoma preparation according to the standard procedure described above in Example 1. Hybridoma supernatants were screened for binding both rec Pig TCN1 (LifeSpan BioSciences, LS-G23154, Seattle, Wash.) and partially purified native Hog-R-protein adsorbed on ELISA plates at 1 μg/mL in 50 μl volume per well. Several hybridomas giving positive signals on both antigens were selected. […] No cross-reactivity of the monoclonal antibodies with Hog Intrinsic Factor was observed. The hybridomas were sub-cloned by limiting dilution, expanded, and frozen.

[2] = molecular target: T2, recombinant yeast-produced non-glycosylated pig TCN1 protein (Lifespan Biosciences, LS-G23154) (Sus scrofa, UniProt P17630 26-417); assay: SPR (Biacore T200), mAb immobilised on CM5 chip, antigen injected at 25-1600 nM, 1:1 fit
T2 construct: Bought protein, Mw 46.3 kDa, non-glycosylated; also called rec Pig TCN1; recombinant Pig TCN1
T2 sequence: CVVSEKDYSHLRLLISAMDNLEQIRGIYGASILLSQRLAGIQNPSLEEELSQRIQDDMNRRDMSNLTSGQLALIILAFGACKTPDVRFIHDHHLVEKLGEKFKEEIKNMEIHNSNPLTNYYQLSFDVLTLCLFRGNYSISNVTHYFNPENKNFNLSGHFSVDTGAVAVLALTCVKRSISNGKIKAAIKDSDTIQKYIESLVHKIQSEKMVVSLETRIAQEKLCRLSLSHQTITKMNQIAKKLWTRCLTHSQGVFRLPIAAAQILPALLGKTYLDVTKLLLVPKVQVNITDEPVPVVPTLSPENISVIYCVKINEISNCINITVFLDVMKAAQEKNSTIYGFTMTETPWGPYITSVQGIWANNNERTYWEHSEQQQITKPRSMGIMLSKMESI
Protocol: (§1) The binding parameters of the interaction between the anti-Hog TCN1 monoclonal antibodies and the TCN1 protein were determined in kinetics experiments using Biacore T200 equipped with Biacore T200 Control Software Version 2.0.1 (GE Healthcare Bio-Sciences, Pittsburgh, Pa.). Anti-Hog TCN1 mAbs were immobilized at 700-5,000 RU density on the carboxymethyl dextran surface in flow cells 2, 3, and 4 of the CM5 sensor chip using amino-coupling chemistry. Control antibody was immobilized in flow cell 1 for bulk effects subtraction. Recombinant Pig TCN1 (LifeSpan BioSciences, LS-G23154, Seattle, Wash.) or native Hog R-protein were injected over the surfaces with immobilized mAbs during 8 minutes at a 30 μL/min flow rate followed by 20 minutes of dissociation. The buffer blanks were run in triplicate by injection of running buffer (10 mM HEPES, 150 mM NaCl, 0.05% P-20, pH 7.4) and used to double-reference the mAb-binding data before fitting. After each cycle of binding, the surface was regenerated by two consecutive injections of 10 mM Glycine, pH 2.0 and 0.1 M Sodium Bicarbonate, pH 8.5 for 30 seconds each at a 30 μL/min flow rate. Kinetic data were collected over 25-1600 nM antigen concentrations and globally fitted to a simple 1:1 interaction model. Biacore T200 Evaluation Software Version 3.0 (GE Healthcare Bio-Sciences) was used to determine the binding parameters of the Hog TCN1 specific mAbs interaction. Kinetic parameters of the binding of the anti-Hog TCN1 monoclonal antibodies with rec Pig TCN1 and native Hog R-protein are presented in Table 5.

[3] = molecular target: T3, native Hog R-protein (glycosylated Hog TCN1 purified from crude powdered extract of hog gastric mucosa) (Sus scrofa, UniProt P17630 26-417, glycosylated, up to about 50% w/w carbohydrates); assay: as above
T3 construct: Mw about 70-92 kDa; The native preparation used for Biacore is not described further; also called native Hog TCN1; partially purified native Hog R-protein
T3 sequence: T2 sequence
Protocol: as §1

Hog Intrinsic Factor [4] = molecular target: T1, Hog Intrinsic Factor; assay: ELISA, antigen titrated on the plate, mAb at 1 µg/mL, goat anti-mouse IgG-HRP, OD 650 nm
Protocol: (§2) Purified mAbs were tested in an ELISA assay for binding to corresponding peptide, partially purified native Hog-R-protein, and recombinant Pig TCN1 (Lifespan BioSciences, LS-G23154, Seattle, Wash.), and Hog Intrinsic Factor. For this purpose, 2-fold dilution of the antigens starting from 8 μg/mL in PBS were placed in the wells of ELISA plates at 50 μl per well for 1 hour at room temperature. The plates were flicked dry, blocked with 200 μl per well of blocking solution, and washed three times as described above. Monoclonal antibodies to Hog TCN1 peptides at 1 μg/mL in PBS were added at 50 μl per well. After 1-hour incubation, the plates were washed again, and goat anti-mouse IgG-HRP conjugate diluted 1:3,000 in blocking solution was added at 50 μl per well for 1 hour. The plates were washed, and TMB substrate (Moss, Pasadena, Md.) was added at 100 μl per well for 15 minutes. Plates were read at 650 nm using an ELISA plate reader.

[5] = molecular target: T4, R2 peptide (Hog TCN1 Peptide 80-89) (Sus scrofa); assay: ELISA, antigen titrated on the plate (2-fold from 8 µg/mL), mAb at 1 µg/mL, goat anti-mouse IgG-HRP, OD 650 nm
T4 construct: Synthetic peptide QDDXNRRDXS, X = norleucine; also called synthetic R2 peptide
T4 peptide: QDD[Nle]NRRD[Nle]S
Protocol: as §2

[6] = molecular target: T3, native Hog R-protein (glycosylated Hog …); assay: SPR (Biacore T200), mAb immobilised on CM5 chip, antigen injected at 25-1600 nM, 1:1 fit; native Hog R-protein (heavily glycosylated)
Protocol: as §1, with “Biacore T200 Evaluation Software Version 3.0 (GE Healthcare Bio-Sciences) was used to determine the binding parameters of the Hog TCN1 specific mAbs interaction. Kinetic parameters of the binding of the anti-Hog TCN1 monoclonal antibodies with rec Pig TCN1 and native Hog R-protein are presented in Table 5.” left out

[7] = molecular target: T2, recombinant yeast-produced …; assay: SPR (Biacore T200); reference is the same mAb on native Hog R-protein
Protocol: as §1, with “Biacore T200 Evaluation Software Version 3.0 (GE Healthcare Bio-Sciences) was used to determine the binding parameters of the Hog TCN1 specific mAbs interaction. Kinetic parameters of the binding of the anti-Hog TCN1 monoclonal antibodies with rec Pig TCN1 and native Hog R-protein are presented in Table 5.” left out

[8] = molecular target: T2, recombinant yeast-produced …; assay: SPR (Biacore T200), mAb immobilised on CM5 chip, antigen injected at 25-1600 nM, 1:1 fit; rec TCN1 protein (non-glycosylated, yeast-produced)
Protocol: as §1, with “Biacore T200 Evaluation Software Version 3.0 (GE Healthcare Bio-Sciences) was used to determine the binding parameters of the Hog TCN1 specific mAbs interaction. Kinetic parameters of the binding of the anti-Hog TCN1 monoclonal antibodies with rec Pig TCN1 and native Hog R-protein are presented in Table 5.” left out

B4: 171B 1G5 monoclonal antibody (antibody, V domains shown)
VH: EVQLQESGPSLVKPSQTLSLTCSVTGDSITSDYWNWIRKFPGNKLEYMGYISYSGNTYYIPSLKSRISITRDTSKNQYYLQLNSVTSEDTATYYCARYDYDVYFSLDYWGQGTSVTVSS
VL: DVVMTQTPLSLPVSLGDQASISCRSSQSLVHSNRNTYLHWYLQRPGQSPKLLVYKVSNRFSGVPDRFSGSGSGTDFTLKISRVEAEDLGVYFCSQSTHVPLTFGAGTKLELKR
- binding result (Hog Intrinsic Factor [4]): no binding
- binding result [5]: binds
- Kd [2]: 72.3 nM
- koff [2]: 0.0047 s⁻¹
- kon [2]: 65000 M⁻¹ s⁻¹

B5: 171J 9G7 monoclonal antibody (antibody, mouse IgG1, V domains shown)
VH: EVQLQQSGAELVKPGASVKLSCTGSGFNIEDIYIHWVKQRPEQGLEWIGRMDPANGDTVYASKFQGKATMTADTSSNTAYMQLSSLTSGDTAVYYCARVFDYWGQGTSLTVSS
VL: DVVMTQTPLSLPVSLGDQASISCRSSQNLVHSNGYTYLHWYLQKPGQSPKLLIYKVSNRFSGVPDRFSGSGSGTDFTLKISRVEAEDLGVYFCSQNTHVPYTFGGGTKLEIK
notes: Mouse IgG1, kappa, from a hybridoma (immunogen partially purified native Hog R-protein)
- Kd [6]: 143 nM
- fold higher affinity than to native Hog R-protein [7]: > 500 fold
- kon [8]: 50600 M⁻¹ s⁻¹
- binding result (Hog Intrinsic Factor [1]): no binding
- koff [3]: 0.00069 s⁻¹
- kon [3]: 4830 M⁻¹ s⁻¹

Continued, values first:

- binding result (Hog Intrinsic Factor [1]): no binding
- Kd [2]: 2.3 nM
- koff [2]: 0.000165 s⁻¹
- kon [2]: 71500 M⁻¹ s⁻¹
B1: 171J 3F1 monoclonal antibody (antibody, mouse IgG1, V domains shown)
VH: EVQLQQSGPELLKPGVSVMISCRASGYTFTDYTMHWVKQSHGESLEWIGGIIPKSGTSNYNEKFKDKATLTVDKSSSTSYMELRSLTSEDSAVYYCARNYYDGGSYYFDYWGQGTTLTVSS
VL: DIQMTQSPASLSASVGETVTITCRTSGNIHNFLTWFQQKQGKSPQLLVYSAETLADGVPSRFSGSGSGTQFSLRINSLQPEDFGSYFCQHFWNTPFTFGSGTKLEMK
notes: as for B5

- binding result (Hog Intrinsic Factor [1]): no binding
- Kd [2]: 2.6 nM
- koff [2]: 6.81e-05 s⁻¹
- kon [2]: 26000 M⁻¹ s⁻¹
B2: 171J 3A6 monoclonal antibody (antibody, mouse IgG2b, V domains shown)
VH: QVQLQQPGAELVRPGALVKLSCKASGYTFTRYWIQWVKQRPGQGLEWIGNISPNSGSVNYSEKFKGKATLTVDKPSSTAYMQLNSLTSEDSAAYYCVRSGGDYFDYWGQGTTLTVSS
VL: DVLMTQTPLSLPVSLGVQASISCRSSQSILHANGNTYLEWYLQKPGQSPKLLIYKVSNRFSGVPDRFSGSGSGTDFTLYISRVEAEDLGVYYCFQGSHLPWTFGGGTKLEIK
notes: Mouse IgG2b, kappa, from a hybridoma (immunogen partially purified native Hog R-protein)

- binding result (Hog Intrinsic Factor [1]): no binding
- Kd [3]: 0.17 nM
- koff [3]: 1.9e-05 s⁻¹
- kon [3]: 115000 M⁻¹ s⁻¹
B3: 171J 5H12 monoclonal antibody (antibody, mouse IgG1, V domains shown)
VH: QVQLQQSGAELVKPGASVKISCKASGYAFSSSWMNWVKQRPGKGLEWIGQIYPGDGDTNYNGKFKDKATLTADKSSNTAYMQLSSLTSEDSAVYFCARVNWDAFSYIDVWGTGTTVTVSS
VL: DIKMTQSPSSMYESLGERVTITCRASQDINVYLSWFQQKPGESPKTLIYRADRLVDGVPSRFSGSGSGQDYSLTISSLEYEDVGIYYCLQYDEFPYTFGGGTKLEIK
notes: as for B5

— patent US20220332803A1 (SIEMENS HEALTHCARE DIAGNOSTICS, published 2022)
